In the DeepSol protein solubility set:

Experiment: soluble on expression in E. coli; label from the status in PepcDB or PDB records

Row | Sequence | soluble on expression in E. coli
1 | MSKIKRVLISVSDKTGIIEFAKELSKYNIEILSTGGTSKTLKDAGINVIDVSEHTQFPEIMNGRVKTLHPLIHGGILADRDNPEHLDAMLKNHIGQIDMVVVNLYPFVNTVKSGADFDTCIENIDIGGPSMVRSCAKNHKHTTIVTNPSQYDLVIKEMAENDGKTTLATRREFAKEAFAHTAEYDSHIANWFSKELDEEYPEKLFSVGTLKQVLRYGENPHQKAAVYSTDADCVSITNARQLQGKELSYNNLNDADGAFEMVCEYSEPSCAIIKHANPCGIASGKNAFEAWTKALACDPISAFGGIVAFNCEVDKEFAESLGKMFLEVIIAPSYTQEALDILAAKKNLRVLETGKVFDTKSSRMISKNIHGGILSQSYDNGGVDINDCKVVTDRAPTDKEWADLMFAWKAVKYVKSNAIVYARDTQTVGIGAGQMSRVDSARIGAEKAQAHQGAKGSAVASDAFFPFADGLEECIKAGATAVIQPGGSKNDQEVIDAANKAGITMVFTNMRHFRH | not soluble
2 | MKKLLSACLILFTVVCSAYAADEKEAAPAAEYAYYGFEPEIVTNYISNRKKLGFVKISVELMVKSPDDLVIVERHDPLLRAAIIEVLGNQAEEKVKSLTGREEIRRECFDMVNNLLTKEAGKPLVVNLLFTSYLYD | not soluble
3 | MGSDKIHHHHHHMSFSMLRAALVLGSIGCAFSPQVNAKLNPLTVQIQPLAQSKLLLDLANAGDQLIAVGQRGHVLVYDKSWIQVPTPVLSQLTKVFFLDAKLGWAVGHDASIIHTQDGGQTWQLQMQSREIEKPFLDIRFFNANEGIAIGAYGLFYRTLDGGKTWEPEFHEELLFEEDVSYLAELKAEDEALYLSERAALLPHFNRIIRLNDSRLLLVGELGLVAESKDNGKHFTRTDFDYDGSMFNAIQVGEQIYVMGLRGHVFKTDLSLSDWQQVELPVKSSINGALVHKGELYIVGNAGVVLRLDGKGHAEIVARRQGENIVAVAESADKQLWFAGSNGLFQLK | not soluble
4 | MSLNIAKGEPVKITTIDVGNKSFPVKITFIDRKGVSYYIDVAMSRTNSGMEPADFQAEKRINYFPNAFSFTNPDVKTRESIQSKYIGQSVYPQKTIRVKQTELLRYTPLHIKDVQPEKAGTSATLLLTDIQGNTYQVKVDLKYDPILKNEDFIEDLFGFSDIRKKYPNISESNWLMLAKGEVKPGMTTEECKLAIGEPIEIRVRTDTRFETWLYRGKILEFENGILLRAKEGHHHHHH | soluble
5 | MSLRLKVSFQAMESTVPLNYNYFLSSFIYKRLASQNENFARFLHEKGYGKRFKFFTFSQLFFENSRVSGERIFIFPGKGWWYISSPVVEFVRYMFSSLSEDPVIRVGKTEFIVKSIDIENSLPDQSEYHFVMLSPLVVSVPEENNGKLYHRYLHPGEEEFYEVFRKNLMKKYRAFYGKDPEGTVEVIPDWDYIKSRHRITKRIKLKNAFVRAVVFPFKIRGEKKLVEIGYEAGFGEKNSMGFGMVALKKYEREGHHHHHH | soluble
6 | MGSDKIHHHHHHMMSWADKYRPKNIDDVILNSEIRKQITEWIESWKEGIPKKRSLILYGSQGTGKTTTAYAIAGTFGVPVVEMNASDQRNRDSMRGTALMASLYGDLFVESAKRPSKVILIDEADNMFERGGDTGGIYELSKIIKNSANPIVITMNDIFEFRKKNYASDVISASLTIEMKQYGRKLDKNYNEFRRNIKARLIFILKNEGYTLPDQVVDRIIDRNMPDIRSMINDLEASAVSGTNISDQSSRDVPEIVYYMVDKAFKRNYDDTLRSIYGSDIDDSYYVSWIDENLPLKTVDLQDLVSAYEVISYADHILWAMERRRHYELMAFPMEIAGGVAYYIENMKHEYVKYQSPSYISQMSKTKEKRHAMMSLALKIGLLIHMGAQRTSEDLWFYSLLYQHNEKLRTFFEEKLNLTQGEENVLTRSE | not soluble
7 | MGSDKIHHHHHHMSTYKINNEQLTLIKEMPFKLEKEIQNIVERNLQTLLGLDFIKTEFSIGSFRIDSLAFDSEKKSFVIIEYKRDKNFSVIDQGYAYLSLMLNNKAEFILEYNESKSGALKRNDVDWSQSKVLFVSPNFTTYQKEAINFKDLPIELWEIKRFTNDTLSFGQIVNRSSKESIKTVSNSEAITTVSKEIKVYSEQDHLENIKDDFLNIYTEIKEFLLSFGEDITIYPKKKTIGFKIGGKVFCDIVMQNKGIRLFLNAKKGTLKDPEGITRDVSEVGHWGNGAYEVRFPLKNDAEIDFVFNLLRQTINKNKE | not soluble
8 | MRWKLLFALLAALLLAACSQSSERVVIGSKPFNEQYILANMIAILLEENGYKAEVKEGLGGTLVNYEALKRNDIQLYVEYTGTAYNVILRKQPPELWDQQYIFDEVKKGLLEADGVVVAAKLGFRDDYALAVRADWAEENGVEKISDLAEFADQLVFGSDPEFASRPDGLPQIKKVYGFEFKEVKQMEPTLMYEAIKNKQVDVIPAYTTDSRVDLFNLKILEDDKGALPPYDAIIIVNGNTAKDEKLISVLKLLEDRIDTDTMRALNYQYDVEKKDAREIAMSFLKEQGLVK | not soluble
9 | MNKRRVKPEHVRREEIVNAAYEVIFEVGLSNTTMAQIAKKAQLSVGIVSHYFGDKQGLINACMLEMLNVLRRKTAQYKAEVQDSHPESMIKAIIDSNFDISQVNQRAMRIWLDFWSASMHMPELSRLQRINDQRLYSNLKFHFLELMPKDQASIAARGLAALIDGLWLRGSLSQDTTFDSTLARSIAYDYVDTQLKLVKQIRQERQNE | not soluble
10 | MGHHHHHHSHMRGCGSRRLCGSWRGCWSWSGKPSTSSRPSPTAALRSWNNENKSALQLERQVKELKLGEPGSYQPAETAAKAQLSLMALPGEGYGGGHLDNEEEAPRPMLNIPGDLESREAMVAFFNSAGASAQEEQSVCCQPLAHPVASSQKKPEAAAPAPETGGESVCGDTHWALQEAMEKLQQLYGRRRWT | not soluble
11 | MATQSDLMELEMAMDPDRKAAVSHWQQQSYLDSGIHSGATTTAPSLSGKGNPEDDDVDNQVLYEWEQGFNQSFNQEQVADIDGQYAMTRAQRVRAAMFPETLDEGMQIPSTQFDSAHPTNVQRLAEPSQMLKHAVVNLINYQDDAELATRAIPELTKLLNDEDQVVVNKAAVMVHQLSKKEASRHAIMRSPQMVSAIVRTMQNTNDVETARCTSGTLHNLSHHREGLLAIFKSGGIPALVNMLGSPVDSVLFHAITTLHNLLLHQEGAKMAVRLAGGLQKMVALLNKTNVKFLAITTDCLQILAYGNQESKLIILASGGPQALVNIMRTYTYEKLLWTTSRVLKVLSVCSSNKPAIVEAGGMQALGLHLTDPSQRLVQNCLWTLRNLSDAATKQEGMEGLLGTLVQLLGSDDINVVTCAAGILSNLTCNNYKNKMMVCQVGGIEALVRTVLRAGDREDITEPAICALRHLTSRHQDAEMAQNAVRLHYGLPVVVKLLHPPSHWPLIKATVGLIRNLALCPANHAPLREQGAIPRLVQLLVRAHQDTQRRTSMGGTQQQFVEGVRMEEIVEACTGALHILARDIHNRIVIRGLNTIPLFVQLLYSPIENIQRVAAGVLCELAQDKEAAEAIEAEGATAPLTELLHSRNEGVATYAAAVLFRMSEDKPQDYKKRLSVELTSSLFRTEPMTWNETGDLGLDIGAQGEPLGYRQDDPSYRSFHSGGYGQDAMGMDPMMEHEMAGHHPGPDYPVDGLPDLGHTQDLIDGLPPGDSNQLAWFDTDL | soluble
12 | PREVLTGGHSVSAPQENRIYVMDSVFMHLTESRVHVYDYTNGKFLGMVPTAFNGHVQVSNDGKKIYTMTTYHERITRGKRSDVVEVWDADKLTFEKEISLPPKRVQGLNYDGLFRQTTDGKFIVLQNASPATSIGIVDVAKGDYVEDVTAAAGCWSVIPQPNRPRSFMTICGDGGLLTINLGEDGKVASQSRSKQMFSVKDDPIFIAPALDKDKAHFVSYYGNVYSADFSGDEVKVDGPWSLLNDEDKAKNWVPGGYNLVGLHRASGRMYVFMHPDGKEGTHKFPAAEIWVMDTKTKQRVARIPGRDALSMTIDQQRNLMLTLDGGNVNVYDISQPEPKLLRTIEGAAEASLQVQFHPVGGT | soluble
13 | MTPYMANTKWVDGSVRSDFPQEKMARLYNLNYTIASQVNPHVVPFMQSDASRYRKDILSWPQRILRRQGKVISLGIMDFTRERLGNVPPVRRLLDHGYGIVGQRYYGDVNIIAPFNLRQYAYMLQNPRPHLFKLLQQQGERATLEHHHHHH | not soluble
14 | MNEFEIGLMSYLGREKLEKLGKVKVGIAGAGGLGSNCALHLVRSGFKNLKIVDFDVVEPSNLNRQFFFLDQLGRPKVLALKENLARINPDVMIEAIQQKVDRNNAKQLFDDCDAVVEAFDKVECKTMMAEAFASSGKFFVCASGLAGWGNSDEIRIRKVHDRFYIVGDFVTGVKEGIPPISPRVNIAAAKQADLILSFFLDDADNTVNVNCQEGLEHHHHHH | soluble
15 | MSDHLGSSHDEGELSDESHKKSQRASSSDEPNPAKSNKGLESKMRESILSRLSKRKNSESDDDTTEQRFSIQPKNAQKAKEDRYRDKERDKKREKDKRDDRRDVRGPDARQKDRDFKGRQERSGRDQKVHEHRHHHHHRKHETDGHRTNRSNRDRSSERDSEKHKRHIDRHKKSSTTSPDNDKSPHKKSKHTDVPADAKLFDRILDPNYKKKDDDVLVIEDVEMSPIEILEEKEEKEIVEFTIDSPAGPKKYSKFESDPESDHDDTKPKSPGKAEDDDDVIEVLDDALHSDDDADSDEDKYLKTPEDREWEEMTETEQRLHKEAMKKRASMKQKTLIAQLPVFYPGLMGCRNIDEYECVNRVDEGTFGVVYRGKDKRTDEIVALKRLKMEKEKEGFPITALREINMLLKAGNHPNIVNVKEILLGSNMDKIYMAMEFVEHDMKSLLDTMSRRNKRFSIGEQKTLLQQLLSGIEHMHKLWILHRDLKTSNLLMSHKGILKIADFGLAREYGDPLKKFTSIVVTLWYRSPELLLGTRLYSTPVDMWSVGCIMAEFILLKPLFPGRGELEQIKKIFMEMGTPTESIWPGVTELDGWKALTFEKYPYNQLRKRFLAGRLLNDTGFKLLNGLLTLDPKNRFSATQALDHEWFTEEPYPVPPEEFPTFPAKSEQNKAPPPAKQKQQENRISHVDPETAKLLKQFEVRPEQVKPGGFSLKFDPTRF | not soluble
16 | MGSDKIHHHHHHMGQRIPVTLGNIAPLSLRPFQPGRIALVCEGGGQRGIFTAGVLDEFMRAQFNPFDLYLGTSAGAQNLSAFICNQPGYARKVIMRYTTKREFFDPLRFVRGGNLIDLDWLVEATASQMPLQMDTAARLFDSGKSFYMCACRQDDYAPNYFLPTKQNWLDVIRASSAIPGFYRSGVSLEGINYLDGGISDAIPVKEAARQGAKTLVVIRTVPSQMYYTPQWFKRMERWLGDSSLQPLVNLVQHHETSYRDIQQFIEKPPGKLRISEIYPPKPLHSIALGSRIPALREDYKLGRLCGRYFLATVGKLLTEKAPLTRHLVPVVTPESIVIPPAPVANDTLVAEVSDAPQANDPTFNNEDLA | not soluble
17 | MSEIKRLEINYKTDELFENFRAFGNKDLYMVNELNGQMIDASSDSPFYGIFVGDQLGARMALLKKGDVEEIYFPDFEDYILLWKLEVLPKYQNRGYASELIDFAKSFNMPIKAIGRNDSKDFFLHHGFTDVEAKNIEGHDVLLWKPIRLEHHHHHH | not soluble
18 | MKQYIPFIRKDPVVPVIRLQGVIASGPRGGLSDQGLAAVIEKAFRRGKPAGVALVINSPGGSPVQSSLIAARIRRLASEKGVRVHAFVEDVAASGGYWLACAGDEIWVDESSLVGSIGVIFSSFGFHEFMARNGIERRVHTAGRSKSLADPFLPEKPEDVERLKALQEPIHRAFIEYVKRHRGTRLDLNADLFNADVWTGQEAVRLGLADGVAHLVPKLQENYGDKVRLVPYGQRRPFLQRLGMSLAGQALAEVENRALWARYGLLEHHHHHH | not soluble
